Here are results for one protein from publication PMC5372246, “Co-production of hydrogen and ethanol from glucose in Escherichia coli by activation of pentose-phosphate pathway through deletion of phosphoglucose isomerase (pgi) and overexpression of glucose-6-phosphate dehydrogenase (zwf) and 6-phosphogluconate dehydrogenase (gnd)” (Biotechnology for Biofuels, 2017).

Broadly, the Km is the substrate concentration at which the rate is half of its maximum.

Substrate in the data set: NC(=O)c1ccc[n+]([C@@H]2O[C@H](COP(=O)(O)OP(=O)(O)OC[C@H]3O[C@@H](n4cnc5c(N)ncnc54)[C@H](OP(=O)(O)O)[C@@H]3O)[C@@H](O)[C@H]2O)c1
Kind of data set: purified protein. Type of data set: biochemical, Escherichia coli. The settings on record: co-substrate 6-phosphogluconate, general assay: Tris-HCl pH 7.5, 1 mM MgCl2, 30 °C.

B1: Gnd (GE), 6-phosphogluconate dehydrogenase (Escherichia coli K-12) (protein)
chain: MSKQQIGVVGMAVMGRNLALNIESRGYTVSIFNRSREKTEEVIAENPGKKLVPYYTVKEFVESLETPRRILLMVKAGAGTDAAIDSLKPYLDKGDIIIDGGNTFFQDTIRRNRELSAEGFNFIGTGVSGGEEGALKGPSIMPGGQKEAYELVAPILTKIAAVAEDGEPCVTYIGADGAGHYVKMVHNGIEYGDMQLIAEAYSLLKGGLNLTNEELAQTFTEWNNGELSSYLIDITKDIFTKKDEDGNYLVDVILDEAANKGTGKWTSQSALDLGEPLSLITESVFARYISSLKDQRVAASKVLSGPQAQPAGDKAEFIEKVRRALYLGKIVSYAQGFSQLRAASEEYNWDLNYGEIAKIFRAGCIIRAQFLQKITDAYAENPQIANLLLAPYFKQIADDYQQALRDVVAYAVQNGIPVPTFSAAVAYYDSYRAAVLPANLIQAQRDYFGAHTYKRIDKEGVFHTEWLD
notes: full-length, C-terminal His-tag, Ni-NTA purified from E. coli, 51 kDa on SDS-PAGE
Regarding B1, the Km was 40 µM.
